The values below come from patent US20260125665.

Consider Thrombin, for which the “cleavage by thrombin (reducing SDS-PAGE, Western blot with anti-human UPA antibody)” value is “For both ML 1.0 and ML 1.1 a distinct band at around 35 Kd is observed, indicating cleavage of Microlyse by thrombin” in the data set on Microlyse variant 1.0; “For both ML 1.0 and ML 1.1 a distinct band at around 35 Kd is observed, indicating cleavage of Microlyse by thrombin” in the data set with Microlyse variant 1.1.
